Assay results from patent US20200087297A1 (Genentech, published 2020).
Where “and” joins values, the source holds several entries; their conditions need not be identical. Identical values can stand only once. Like-named read-outs stand apart in the source and are kept apart here.

T1: NaPi2b (SLC34A2, type II sodium-dependent phosphate transporter 3b) (human, UniProt O95436 1-690)
T1 sequence (looked up): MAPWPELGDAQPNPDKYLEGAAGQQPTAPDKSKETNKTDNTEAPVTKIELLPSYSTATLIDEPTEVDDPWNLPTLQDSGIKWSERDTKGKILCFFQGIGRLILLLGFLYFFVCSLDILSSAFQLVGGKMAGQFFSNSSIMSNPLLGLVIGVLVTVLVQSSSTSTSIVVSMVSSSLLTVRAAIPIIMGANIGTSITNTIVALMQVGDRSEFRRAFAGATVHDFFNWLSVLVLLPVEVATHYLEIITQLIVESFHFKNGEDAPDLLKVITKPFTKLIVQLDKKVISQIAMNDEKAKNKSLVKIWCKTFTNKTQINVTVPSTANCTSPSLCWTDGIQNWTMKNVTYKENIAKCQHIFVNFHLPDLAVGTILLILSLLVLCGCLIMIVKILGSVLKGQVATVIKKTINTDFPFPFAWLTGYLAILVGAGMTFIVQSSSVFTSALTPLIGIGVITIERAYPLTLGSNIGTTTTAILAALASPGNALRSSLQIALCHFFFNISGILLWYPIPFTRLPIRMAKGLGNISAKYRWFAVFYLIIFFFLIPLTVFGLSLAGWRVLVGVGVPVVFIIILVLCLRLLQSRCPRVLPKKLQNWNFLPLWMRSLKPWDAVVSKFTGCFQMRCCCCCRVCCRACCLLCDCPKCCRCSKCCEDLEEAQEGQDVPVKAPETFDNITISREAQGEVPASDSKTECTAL

B1: Anti-Napi2b 10H1.11.4B LC K149C MC-Sq-Cit-PAB-Tubulysin M (antibody, DAR 1, V domains shown)
VH: EVQLVESGGGLVQPGGSLRLSCAASGFSFSDFAMSWVRQAPGKGLEWVATIGRVAFHTYYPDSMKGRFTISRDNSKNTLYLQMNSLRAEDTAVYYCARHRGFDVGHFDFWGQGTLVTVSS
VL: DIQMTQSPSSLSASVGDRVTITCRSSETLVHSSGNTYLEWYQQKPGKAPKLLIYRVSNRFSGVPSRFSGSGSGTDFTLTISSLQPEDFATYYCFQGSFNPLTFGQGTKVEIKR
B2: Anti-Napi2b 10H1.11.4B LC K149C MC-Sq-Cit-PAB Dolastatin 10 (antibody, DAR 1, V domains shown)
VH: B1 VH
VL: B1 VL

Legend:
[1] = biological target: T1, NaPi2b (SLC34A2, type II …); assay: cell-based or functional assay
[2] = biological target: T1, NaPi2b (SLC34A2, type II …); assay: cell-based or functional assay; remark: listed apart in the source

Binder	IGROV-1 IC50 (EdU Prolif assay) [1]	OVCAR-3x2.1 IC50 (EdU Prolif assay) [1]	IGROV-1 IC50 (EdU Prolif assay) [2]	OVCAR-3x2.1 IC50 (EdU Prolif assay) [2]
B1	2.07 nM and 310 ng/mL	151 ng/mL and 1 nM		
B2			3.19 nM and 478 ng/mL	1.52 nM and 228 ng/mL
